The star is where a group is joined. 3‑aminopropyl acylfulvene = analog 211, C-terminal Leu bound as amide to it; Mu = 4-morpholine-carbonyl, O=C(N1CCOCC1)*
Biological target: prostate specific antigen (Homo sapiens)
Test: cell-based or functional assay

Mu-HSSKLQL-{3‑aminopropyl acylfulvene} [Analog 221 (Mu-His-Ser-Ser-Lys-Leu-Gln coupled to analog 207, 211-leucine)]
IC50 (48 hour exposure), Prostate DuPro (trace PSA): 13 µM
IC50 (48 hour exposure), Prostate LnCAP (positive PSA): 0.8 µM
